# Reference: publication PMC3567243 (Molecular Microbiology, 2012)
# Tested on: CC1=CC(=O)c2ccccc2C1=O
# Assay: purified protein
substance,measurement,value
(Mycobacterium tuberculosis H37Rv),Km,17.29 ± 11.63 µM
same,kcat/Km,94500 M⁻¹ s⁻¹
